Numbering of substitutions follows the chain as printed.
Assays:
[1] = target: human PKD1 kinase domain (PKD1^CAT, residues 569–892) (human) (UniProt Q15139); test: fluorescence polarisation; fluorescence anisotropy; 195 μM PKD1^CAT with 80 nM Atto488-labeled PKD1^CAT successively diluted with buffer containing 80 nM labeled protein; 50 mM Tris pH 7.5, 220 mM KCl, 1% glycerol, 1 mM TCEP; 20 °C; single binding model; dimer to monomers
[2] = target: human PKD1 kinase domain (PKD1^CAT, residues 569–892) (human) (UniProt Q15139); test: SEC-MALS; PKD1^CAT, first run, 625 μg injected
[3] = target: the molecule itself; test: SEC-MALS; Superdex 200 10/300; 20 mM Tris pH 7.5, 150 mM KCl, 1 mM TCEP; 50 μl of 2.5 mg/ml protein injected
[4] = target: T1, Atto488-labeled DKF-1 ULD^R42C (C. elegans, UniProt Q9XUJ7 1-94, R42C, Atto488 (maleimide-conjugated) on cysteine 42); test: fluorescence polarisation; fluorescence anisotropy; ULD or ULD^F59E (222 or 150 μM stock) titrated into 35–70 nM Atto488-ULD^R42C; 20 mM Tris pH 7.5, 150 mM KCl, 1% glycerol, 1 mM TCEP; 20 °C; single-site binding model; dimer to monomers; details: both partners purified
T1 construct: C. elegans DKF-1, residues 1-94 (ubiquitin-like domain) with the surface-exposed arginine 42 mutated to cysteine; Labeling efficiency estimated at about 80%; also called Atto488-ULD^R42C; source: E. coli BL21*, purified in the same way as the WT counterpart, labelled with maleimide-Atto488; not shown: GST, N-terminal, cleaved
T1 sequence (looked up): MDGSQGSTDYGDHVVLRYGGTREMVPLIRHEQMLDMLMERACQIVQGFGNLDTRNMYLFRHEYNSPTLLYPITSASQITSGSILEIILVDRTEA

[5] = target: the molecule itself; test: fluorescence polarisation; fluorescence anisotropy; unlabeled PKD1 ULD (800 μM stock) titrated into 40 nM Atto488-labeled PKD1 ULD; 20 mM Tris pH 7.5, 150 mM KCl, 1 mM TCEP, 1% glycerol; 20 °C; single binding model; dimer to monomers

“human PKD1 kinase domain (PKD1^CAT, residues 569–892) (from UniProt Q15139 569-892) (domain or fragment)” was tested, and the Kd [1] was 50000 nM and the stoichiometry N [2] was 2.

B1: DKF-1 ULD (DKF-1^1–94) (domain or fragment, C. elegans, UniProt Q9XUJ7 1-94, looked up)
chain: T1 sequence (looked up) with C42R
notes: C. elegans PKD homolog DKF-1, residues 1-94 (ubiquitin-like domain); also called ULD^WT; source: E. coli BL21*, purified (GSH beads, TEV cleavage on beads, SEC); not shown: GST, N-terminal, cleaved
With B1 the “stoichiometry N” value [3] was 2 and the Kd [4] was 650 ± 70 nM.

B2: DKF-1 ULD–C1a (DKF-1^1–151) (domain or fragment, C. elegans, UniProt Q9XUJ7 1-151, looked up)
chain: MDGSQGSTDYGDHVVLRYGGTREMVPLIRHEQMLDMLMERARQIVQGFGNLDTRNMYLFRHEYNSPTLLYPITSASQITSGSILEIILVDRTEAAVIPHVVEPESYMRPTFCDFCGEMLTGLMRQGVKCKNCNGNFHKRCSNAARNNCGAP
notes: C. elegans PKD homolog DKF-1, residues 1-151 (ubiquitin-like domain and C1a domain); The final crystallographic model comprises residues 12-151; also called PKD N terminus; source: E. coli BL21*, purified (GSH beads, TEV cleavage on beads, SEC); not shown: GST, N-terminal, cleaved
B2 was tested, and the “stoichiometry N” value [3] was 2.

B3: human PKD1 ULD (PKD1^48–143) (domain or fragment, UniProt Q15139 48-143, looked up)
chain: GISFHLQIGLSREPVLLLQDSSGDYSLAHVREMACSIVDQKFPECGFYGMYDKILLFRHDPTSENILQLVKAASDIQEGDLIEVVLSASATFEDFQ
notes: human protein kinase D1 (PKD1), residues 48-143 (ubiquitin-like domain); In the anisotropy titration 40 nM of the same protein carried Atto488 (maleimide) on its surface-exposed cysteines (labeling efficiency 50%); Addgene 31527 is the plasmid carrying the PKD1 gene; also called ULD of human PKD1; source: E. coli BL21*, purified (GSH beads, TEV cleavage on beads, SEC); not shown: GST, N-terminal, …
In the case of B3, the “stoichiometry N” value [3] is reported as 2 and the Kd [5] is reported as 1700 ± 200 nM.

B4: human PKD3 ULD (PKD3^55–149) (domain or fragment, UniProt O94806 55-149, looked up)
chain: GSVHTVSFLLQIGLTRESVTIEAQELSLSAVKDLVCSIVYQKFPECGFFGMYDKILLFRHDMNSENILQLITSADEIHEGDLVEVVLSALATVED
notes: human protein kinase D3 (PKD3), residues 55-149 (ubiquitin-like domain); also called ULD of human PKD3; source: E. coli BL21*, purified (GSH beads, TEV cleavage on beads, SEC); not shown: GST, N-terminal, cleaved
B4 was tested, and the “stoichiometry N” value [3] was 2.
